Source: patent US20250026787A1 (GLO PHARMA, published 2025)
Square brackets hold non-standard residues; d marks the D form. Ends that are not written are not given here.

Legend:
[1] = molecular target: T1, Human recombinant melanocortin MC1 receptor (human, UniProt Q01726 1-317); assay: radioligand competition, displacement of [125I]NDP-alpha-MSH from human MC1R (CHO-K1), Example 7
T1 construct: whole, on cells; Eurofins Discovery assay Item 251100; a 3 ug aliquot of receptors from CHO-K1 cells was incubated, filtered and washed (probably a membrane preparation); also called Melanocortin 1 Receptor; MCIR
T1 sequence (Q01726 whole entry): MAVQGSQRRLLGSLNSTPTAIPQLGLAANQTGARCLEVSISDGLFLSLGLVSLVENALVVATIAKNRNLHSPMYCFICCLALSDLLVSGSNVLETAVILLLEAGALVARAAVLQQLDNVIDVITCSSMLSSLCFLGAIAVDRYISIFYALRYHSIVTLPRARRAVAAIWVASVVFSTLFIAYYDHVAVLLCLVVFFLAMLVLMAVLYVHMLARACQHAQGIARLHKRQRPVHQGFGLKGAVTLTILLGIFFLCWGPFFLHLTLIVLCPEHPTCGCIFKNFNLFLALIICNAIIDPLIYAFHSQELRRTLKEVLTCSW
Description: (§1) The binding of Group A MCIR peptide antagonists of the disclosure was evaluated in a competition assay (MC1 Human Melanocortin GPCR Binding (Agonist Radioligand) Assay, Item 251100, Eurofins Discovery). Peptides were synthesized by AnaSpec (Fremont, CA). Human recombinant melanocortin MCI receptors were expressed in CHO-K1 cells in modified HEPES-KOH buffer pH 7.0. A 3 μgs aliquot was incubated with 0.04 nM [¹²⁵I]NDP-α-MSH for 120 minutes at 37° C. Non-specific binding was estimated in the presence of 1 μM NDP-α-MSH. Receptors were filtered and washed, and the filters counted to determine [¹²⁵I]NDP-α-MSH specifically bound. Peptide antagonists of the disclosure having amino acid sequences as set forth in SEQ ID NOS: 11, 16, 25, 27, 32, 35, and 40 were screened at five concentrations. Inhibition curves were obtained by determining the reduction of bound α-MSH in the presence of an amount of, and/or by increasing amounts of, each peptide antagonist.

[2] = molecular target: T1, Human recombinant melanocortin MC1 …; assay: radioligand competition, displacement of [125I]NDP-alpha-MSH from human MC1R (CHO-K1), Example 1
Description: as §1, with “determine [¹²⁵I] NDP-α-MSH” for “determine [¹²⁵I]NDP-α-MSH”, “40 (each having a C-terminal —NH2)” for “40”, “five concentrations, as well as a positive control, SEQ ID NO: 1 (Melanostatine-5).” for “five concentrations.”, “antagonist. Non-specific binding of peptide was estimated separately in the presence of a vast excess (1 mM) of unlabeled α-MSH, which occupies all the available receptor binding sites.” for “antagonist.”
Based on the competitive binding curve, the IC₅₀ values were determined (Eurofins or AAT Bioquest IC₅₀ calculator). […]

Binder | IC50 [1] | IC50 [2]
MVFR[dW]FKPV-NH2 (N-terminus assumed; SMILES CSCC[C@H](N)C(=O)N[C@H](C(=O)N[C@@H](Cc1ccccc1)C(=O)N[C@@H](CCCNC(=N)N)C(=O)N[C@H](Cc1c[nH]c2ccccc12)C(=O)N[C@@H](Cc1ccccc1)C(=O)N[C@@H](CCCCN)C(=O)N1CCC[C@H]1C(=O)N[C@H](C(N)=O)C(C)C)C(C)C, Printed as Met-Val-Phe-Arg-dTrp-Phe-Lys-Pro-Val-NH2) [SEQ ID NO: 27] | > 500 nM | –
EV[dF]R[dW]FKPV-NH2 (N-terminus assumed; SMILES CC(C)[C@H](NC(=O)[C@@H]1CCCN1C(=O)[C@H](CCCCN)NC(=O)[C@H](Cc1ccccc1)NC(=O)[C@@H](Cc1c[nH]c2ccccc12)NC(=O)[C@H](CCCNC(=N)N)NC(=O)[C@@H](Cc1ccccc1)NC(=O)[C@@H](NC(=O)[C@@H](N)CCC(=O)O)C(C)C)C(N)=O, Printed as Glu-Val-dPhe-Arg-dTrp-Phe-Lys-Pro-Val-NH2) [SEQ ID NO: 25] | > 500 nM | –
AV[dF]R[dW]FKPV-NH2 (N-terminus assumed; SMILES CC(C)[C@H](NC(=O)[C@@H]1CCCN1C(=O)[C@H](CCCCN)NC(=O)[C@H](Cc1ccccc1)NC(=O)[C@@H](Cc1c[nH]c2ccccc12)NC(=O)[C@H](CCCNC(=N)N)NC(=O)[C@@H](Cc1ccccc1)NC(=O)[C@@H](NC(=O)[C@H](C)N)C(C)C)C(N)=O, Printed as Ala-Val-dPhe-Arg-dTrp-Phe-Lys-Pro-Val-NH2) [SEQ ID NO: 11] | 200 to 500 nM | –

Second part, the binder after the results:

IC50 [1] | IC50 [2] | Binder
< 200 nM | – | FV[dF]R[dW]FKPV-NH2 (N-terminus assumed; SMILES CC(C)[C@H](NC(=O)[C@@H]1CCCN1C(=O)[C@H](CCCCN)NC(=O)[C@H](Cc1ccccc1)NC(=O)[C@@H](Cc1c[nH]c2ccccc12)NC(=O)[C@H](CCCNC(=N)N)NC(=O)[C@@H](Cc1ccccc1)NC(=O)[C@@H](NC(=O)[C@@H](N)Cc1ccccc1)C(C)C)C(N)=O, Printed as Phe-Val-dPhe-Arg-dTrp-Phe-Lys-Pro-Val-NH2) [SEQ ID NO: 16]
< 200 nM | 120 nM | MP[dF]R[dW]FKPV (Printed as Met-Pro-D-Phe-Arg-D-Trp-Phe-Lys-Pro-Val; no terminal modification is printed for the control; also called control; positive control) [Melanostatine-5 / Nonapeptide-1 (SEQ ID NO: 1)]
< 200 nM | – | IFR[dW]FKPV-NH2 (N-terminus assumed; SMILES CC[C@H](C)[C@H](N)C(=O)N[C@@H](Cc1ccccc1)C(=O)N[C@@H](CCCNC(=N)N)C(=O)N[C@H](Cc1c[nH]c2ccccc12)C(=O)N[C@@H](Cc1ccccc1)C(=O)N[C@@H](CCCCN)C(=O)N1CCC[C@H]1C(=O)N[C@H](C(N)=O)C(C)C, Printed as Ile-Phe-Arg-dTrp-Phe-Lys-Pro-Val-NH2 (8 residues)) [SEQ ID NO: 32]
